Results taken from the nanobody polyreactivity screen of Harvey et al. (2022).

Assay: yeast display, Sf9 membrane polyspecificity reagent, FACS + sequencing; frameworks hold sequencing errors
Outline: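 A nanobody's polyreactivity label depends on the gate it was sorted from. Yeast display cells were stained with 10% biotinylated, detergent-solubilized Sf9 membrane reagent for 1 hour at 4 °C, enriched on streptavidin microbeads and sorted by FACS. The low and high (top ~1%) gates were set on anti-HA fluorescence for expression and streptavidin fluorescence for reagent binding.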

QVQLVESGGGLVQAGGSLRLSCAASGGIFPDYAMGSYRQAPGKERELVAVISDSGGSTYYADSVKGRFTISRDNAKNTVYLQMNSLKPEDTAVYYCAAETEWYYGYYEYWGQGTQVTVSS
polyreactivity (PSR sort gate): high polyreactivity

QVQLVESGGGLVQAGGSLRLSCAASGLIFSRYAMGWYRQAPGKERELVAAISTRGGSTYYADSVKGRFTISRDTAKNTVYLQMNSLKPEDTAVYYCNADIYGTFRVGQGYDYWGQGTQVTVSS
polyreactivity (PSR sort gate): high polyreactivity

QVQLVESGGGLVQAGGSLRLSCAASGSIFGWYVMGWYRQAPGKERELVAAISSGGSTNYADSVKGRFTISRDNAKNTVYLQMNSLKPEDTAVYYCAKRFRRTPYRNTYKPYDRYYWGQGTQVTVSS
polyreactivity (PSR sort gate): high polyreactivity

QVQLVESGGGLVQAGGSLRLICASSGSILRYNTMVWYRQAPGKERELVAAITYRGGSTYYADSVKGRFTISRDNAKNTVYLQMNSLKPEDTAVYYCNAARWWKTPDDYWGQGNQVTVSS
polyreactivity (PSR sort gate): high polyreactivity

QVQLVESGGCLVQAGGSLRLSCAASGSTFPVYSMGWYRQAPGKERELVAAISYSGGSTNYADSVKGRFTISRDNAKNTVYLQMNSLKPEDTAVYYFAADTESHHEGNYWGQGTQVTVSS
polyreactivity (PSR sort gate): low polyreactivity

QVQLVESGGGLVQAGGSLRLSCAASGRIFKYYAMGWYRPAPGKERELVAAISRSSGRTYYADSVKGRFTISRDNAKNTVYFQMNSLKPEDTAVYYCNALPSTVYLTYDYWGQGTQVTVSS
polyreactivity (PSR sort gate): high polyreactivity

QVQLVESGGGLVQAGGSLRLSCAASGNIFYINTMGWYRQEPGKERELVDAIDASDGSTYYADSVKGRFTISRDNAKNTVYLQMNSLKPEDTAVYYFASRRGYDSVYYFYTLWYYYWGQGTQVTVSS
polyreactivity (PSR sort gate): low polyreactivity

QFQLVESGGGLVQAGGSLRLSCADSGSIFSGYAMGRYRQEPGKDSELVASITRGGSTYYADSVKGRFTISLDNAKNNVYLQINSLKQEDTAVYYCARYGYKNRPLGMDYWGQGTQVTVSS
polyreactivity (PSR sort gate): low polyreactivity

QVQLVESGGGLFQAGGSLRLTCAASGSTFPYHTMGWYRQATGKQRDFVAAITGDGGTTYYADSVKGRFTISRDNAKNTVYLQMNSLKPEDTAVYYCNALYAPYGWFYCLYDYWGPGTQVTVSS
polyreactivity (PSR sort gate): low polyreactivity

QVQLVESGGGLVQAGVSLRLSCAASGRIFRFYAMGWYRQAPGIDRELVATISRSGGSTYYADSVKGRFTISRDNAKNNAYLQMNSLKPEDTAVYYCAAQRLHDGDYWVQGTQVTVSS
polyreactivity (PSR sort gate): high polyreactivity

QVQLVETGGGLVQAGGSLRLSCAASGIIIPWYTMGWYRQAPGKERELVAAISSGGRTNYADSVKGRFTISRDNAKNTVYLQMNSLIPEDTAVYYCAANYYRDRDWGQGTQVTVSS
polyreactivity (PSR sort gate): high polyreactivity

QVQLVESGGGLVQAGGSLRLSCAASGSIFGSNGMGWSRQAPGKERELVAAISSGDSTNYADSVKGRFTISRDNAKNTVYLQMNSLKPEDTAVYSCERWGLGDYWGQGTQVTVSS
polyreactivity (PSR sort gate): low polyreactivity

QVQLVESGGGLVQAGGSLRLSCAASGSTFGYNAMGWYRQATGKERELVARITSSGGSTYYADSVKGRFTISRDNAKNTVYLQMNILKPEDTAVYYCAAGYLSGNYARYGYWGQGTQVTVSS
polyreactivity (PSR sort gate): high polyreactivity

QVQLVESGGGLVQAGGSLRLSCAASGSIFGYYAMGWYRQAPGKERELVAAISRRGGSTYYADSVKGRFTISRDNAKNTVYLQMNSLKPEDTAVYYCAAVGGYASYFHLYYYWGQGTQVTVSS
polyreactivity (PSR sort gate): high polyreactivity

QVQLVESGGGLVQAGGSLRLSCAASGYIFFNAMGWYRQAPGKERELVAAITYPVGSTHYADSVKGRFTISRDNAKNTVYLQMNSLKPEDTAVYYCAAEWYQYLRWYWTYEYYWGQGTQVTVSS
polyreactivity (PSR sort gate): low polyreactivity

QVQLVESGGGLVQAGGSLRLSCAASGITFEDYAMGWYRQAPGKERELVAAISWSGDITYYADSVKGRFTISRDNAKNTVYLQMNSLKPVDTAVYYCAADLSPYGYDYWGQGTQVTVSS
polyreactivity (PSR sort gate): low polyreactivity

QVQLVESGGGLVQAGGSLRLSCAASGRIFPWYAMGWYRQAPGRVREFLAVISRSGGSTYYADSVKGRFTISRDNAKNTVYLQMNSLKPEDTAVYYCAADGKFEYDYWGQGTQVTVSS
polyreactivity (PSR sort gate): low polyreactivity

QFQLVESGGGLVQAGGSLRLSCAASGRTFWNYAMGWYRQAPGKERELVAAISVTGTNTYYADSVKGRFTISRDNAKNTVYLQMNSLKPEDTAVYYCAARGRPGLYYWGQGTQVTVSS
polyreactivity (PSR sort gate): high polyreactivity

QVQLVESGGGLVQAGGSLRLSCAASGSTFWGYAMGWSRQAPGKERELVASITTSDSTYYADSVKGRFTISRDNAKNTVYLQMNSLKPEDSAVYYCAADETWPEYDYWGQGSQVTVSS
polyreactivity (PSR sort gate): low polyreactivity

QVQLGESGGGLVQAGGSLRLSCAASGSIVDVYAMGWYRPAPGKERELVADITSGDITNYADSVKGRFTISRDNAKNTVYLQMNSLKPEDTAVYYCATPLKLAYSPKLDYWGQGTQLTVSS
polyreactivity (PSR sort gate): low polyreactivity

QVQLVESGGGLVQAGGSLRLSCAASGFIFAGYTMGWSRPAHGKERELVAAIRSSGGRTYYADSVKGRFTISRDNAKNTVYLQMYSMKPEDTAVDYCNAVVDRLIFWQFDYWGQGTQVTVSS
polyreactivity (PSR sort gate): high polyreactivity

QVQLVESRGGLVQAGGTLRLSCAPSGLTSYGNTRGWDIPAPGKERELVAAISKRGTSTYYADSVKGRFTISRDNAMNTVYLQMNSLKPEDTAVYYCAAAYRGREVEYISWGQGTQVTVSS
polyreactivity (PSR sort gate): high polyreactivity

QVQLVESGGGLVQAGGSLRLSCAASGRIFYTYAKGLSRQAPRKERELVATISNSGGSTYYADSVKGRFTISRDNAKNTVYLQMNSLKPEDTAVYSCAKDERAAPSASYAYYYWGQGTLVTVSS
polyreactivity (PSR sort gate): low polyreactivity

QVQLVESGGGLVQAGGSLRLSCAASGSTFEFNDMGWYRQAPGKERELVASIRHSDGSTYYADSVKGRFTISRDNAKNTVYLQMNSLKPEDTAVYYCNKAFQWSGGQVSYDYWGQGTQVTVSS
polyreactivity (PSR sort gate): low polyreactivity

QVQLVESGGGLVQAGGSLRLSCAASGFIIGVNDMGWYRQPPGKERELVAAITSGGNTNYADSVKGRFTISRDNAKNTVYLQMNSLKPEDTAVYYCIVDTRLPMDYWGQGTQVTVSS
polyreactivity (PSR sort gate): low polyreactivity

QVQLVESGGGLVQAGGSLRLSCASSGSIFGAYAMGWYRQAPGKERELVAAITSVGSTYYADSVKGRFTISRDNAKNTVYVQMNSLIPEDTAVYYCAKRQWRPTYRYGYWGQGTQVTVSS
polyreactivity (PSR sort gate): low polyreactivity

QVQLVESGGGLVQAGGSLRLSCAASGRTFGRYAMGWYRQAPGKERELVARISFTGGSTYADSVKGRFTISRDNAKNTVYLQMNSLKPEDTAVYYCNVPYYINHKFYDSPFVQRYDYWGQGTQVTVSS
polyreactivity (PSR sort gate): low polyreactivity

QVQLVESGGGLVQAGGSLRLSCAASGRTFGIYAMGWYRQAPGKERELVATISWRGGSTYYADSVKGRFTISRDNAKNTVYLQMNSLKPEDTAVYYCAAGYYPYWGQGTQVTVSS
polyreactivity (PSR sort gate): low polyreactivity

QVQLVESGGGLVQAGGSLRLSCAASGFIFVLYAMGWYRQAPRKERELVAAISRGGSSTYYADSVKGRFTISRDNAKNTVYLQMNSLKPEATAVYYCAARIRNWPAMDYWGQGTQVTVSS
polyreactivity (PSR sort gate): high polyreactivity

QVQLVESGGGLVQAGGSLRLSCAASGFIFERNAMGWYRQAPGKERELVAGISNNGGSTYYADSVKGRFTISRDNAKNTVYLQMNSLKPEDTAVYYCARDPNDDNSFPYDYWGQGTQVTVSS
polyreactivity (PSR sort gate): low polyreactivity

QVQLVESGGGLVQAGGSLRLSCAASGLIFDRYPMGWYRQAPGKERELVAAINRSGGTTYYADSVKGRFTISRDNAKNTVYLQMNSLKPEDTAVYYCAARWQRYRSGTGDYWGQGTQVTVSS
polyreactivity (PSR sort gate): high polyreactivity

QVQLVESGGGLVQAGGSLRLSCAASGFTFYHYAMGWYRPAPGKERELVAAISKSGGRTYYADSVKGRFTISRDNAMYTVYLQMNSLKPEDTAVYYFNAAYRTTSYENDYWGQGTQVTVSS
polyreactivity (PSR sort gate): low polyreactivity
